# Measurements as given in patent US20080305517A1, “Transglutaminase Crosslinked Collagen Biomaterial for Medical Implant Materials” (ASTON UNIVERSITY, priority 2004, published 2008).
# Assays:
# Type I collagen = assay: Collagen fibril formation rate (turbidity at 325 nm), type I collagen; format: biochemical, calf
# Description: (§1) FIG. 1. Type I collagen fibrillogenesis after neutralisation in the presence of transglutaminases. Collagen (3 mg/ml) was neutralised as in the methods and was treated with 0, 50 or 250 μg/ml of microbial TG (A) or tTG (B). 500 μM of the TGase inhibitor N-Benzyloxycarbonyl-L-phenylalanyl-6-dimethyl-sulfonium-5-oxo-L-norleucine (‘R281’) was used to confirm that the effects were due to transglutaminase activity. The absorbance at 325 nm was measured using a PYE Unicam SP1800 UV spectrophotometer. The temperature was controlled at 25° C. using a Techne C-85A circulator. Results are from the average of 3 independent experiments.
# (§2) Collagen fibrillogenesis was monitored by measuring the absorbance (turbidity) at 325 nm using a PYE Unicam SP1800 UV spectrophotometer.
# Type III collagen = assay: Collagen fibril formation rate (turbidity at 325 nm), type III collagen; format: biochemical
# Description: as §1, with “FIG. 2.” for “FIG. 1.”, “Type III” for “Type I”, “of mTG” for “of microbial TG”, “μM” for “μM of the TGase”, “inhibitor R281” for “inhibitor N-Benzyloxycarbonyl-L-phenylalanyl-6-dimethyl-sulfonium-5-oxo-L-norleucine (‘R281’)”
# as §2
# [1] = Determination of ε-(γ-glutamyl)lysine cross-link (ion exchange amino acid analysis of digested collagen); format: physicochemical; conditions: for the equivalent (μg of protein) TG concentration
# Description: Neutralised collagen mixture was subjected to treatment by both tissue and microbial TG. Samples of the neutralised collagen were treated with 50-1000 μg/ml of tTG, in a reaction mix consisting of 2 mM DTT and 5 mM CaCl2 in 10 mM Tris buffer (pH 7.4). The reaction mixture for the microbial enzyme simply consisted of 10 mM Tris buffer (pH 7.4). Incorporated fibronectin (Sigma-Aldrich, Poole, UK. Cat no. F0895) was used at concentrations of 5 μg/ml and 50 μg/ml. Transglutaminase was always added last to the collagen-reaction mix to minimise any self-imposed cross-linking. […]
# Cross-linked and native samples of collagen were proteolytically digested by a modification of the methods of Griffin and Wilson (1984), which included an initial digestion with microbial collagenase (Clostridium histolyticum; 1 mg/ml, Sigma-Aldrich, Poole, UK. Cat no. C9891), prior to the addition of further proteases. […] Derivatisation was performed post column using o-pthaldialdehyde (0.8M boric acid, 0.78M potassium hydroxide, […] o-phthaldialdehyde, 0.5% (v/v) methanol, 0.75% (v/v) 2-mercaptoethanol, 0.35% (v/v) Brij 30) and the absorbance was measured at 450 nm. Dipeptide was determined by addition of known amounts of ε(γ-glutamyl)lysine to the sample and comparing peak areas.
# N,N′-dimethylcasein = assay: Transglutaminase activity: incorporation of [14-C]-putrescine into N,N′-dimethylcasein; format: biochemical; conditions: Unit = 1 nmol of putrescine incorporated per hour
# Source text: The incorporation of [14-C]-putrescine into N,N′-dimethylcasein, as described earlier by Lorand et al. (1972) was used to assay for TG activity and monitor the effects of the inhibitors. Unit of transglutaminase activity is 1 nmol of putrescine incorporated per hour.
# [2] = 50 μg or 250 μg of TG, collagen 3 mg/ml, absorbance at 325 nm, 25° C., vs untreated
Molecule,inhibition of the transglutaminase effects on fibrillogenesis (Type I collagen; 500 μM inhibitor),inhibition of the transglutaminase effects on fibrillogenesis (Type III collagen; 500 μM inhibitor),"amount of isopeptide formed, comparison in words [1]",time taken to achieve gel formation (Type I collagen; [2]),time taken to achieve gel formation (Type III collagen; [2]),"Activity of the transglutaminase used to pre-treat collagen for the cell experiments (N,N′-dimethylcasein) [Units/mg]","Typical activities for the transglutaminases used (N,N′-dimethylcasein)"
"C[S+](C)CC(=O)CC[C@H](NC(=O)[C@H](Cc1ccccc1)NC(=O)OCc1ccccc1)C(=O)O.[Br-] [R281, N-Benzyloxycarbonyl-L-phenylalanyl-6-dimethylsulfonium-5-oxo-L-nor-leucine bromide salt, reference compound]",abolished these effects,abolished these effects,,,,,
"mTG: Microbial transglutaminase from Streptoverticillium mobaraenase, purified from Activa WM (Ajinomoto) (protein, UniProt P81453 77-407, looked up) Protein-glutamine …: DSDDRVTPPAEPLDRMPDPYRPSYGRAETVVNNYIRKWQQVYSHRDGRKQQMTEEQREWLSYGCVGVTWVNSGQYPTNRLAFASFDEDRFKNELKNGRPRSGETRAEFEGRVAKESFDEEKGFQRAREVASVMNRALENAHDESAYLDNLKKELANGNDALRNEDARSPFYSALRNTPSFKERNGGNHDPSRMKAVIYSKHFWSGQDRSSSADKRKYGDPDAFRPAPGTGLVDMSRDRNIPRSPTSPGEGFVNFDYGWFGAQTEADADKTVWTHGNHYHAPNGSLGAMHVYESKFRNWSEGYSDFDRGAYVITFIPKSWNTAPDKVKQGWP",,,much greater increase (almost two-fold),significant reduction,significant reduction,16000,16000-25000 Units/mg
